In patent US20100041875A1:

Key:
[1] = biological target: JR-FL gp41 NT 1-5 mutant Env (full-length gp160) (HIV-1 isolate JR-FL (subtype B)) (UniProt P20871); test: cell-based or functional assay
[2] = biological target: full-length WT JR-FL (gp160) Env (JR-FL WT) (HIV-1 isolate JR-FL (subtype B)) (UniProt P20871); test: cell-based or functional assay
[3] = biological target: JR-FL gp41 NT 1-5 SOS gp140 mutant (trimer) (HIV-1 isolate JR-FL (subtype B)) (UniProt P20871); test: SPR (BIAcore X): agent captured via Fc on protein G chip, 5 nM purified gp140 trimer injected
[4] = biological target: wild-type JR-FL SOS gp140 (trimer) (HIV-1 isolate JR-FL (subtype B)) (UniProt P20871); test: as above
[5] = biological target: JR-FL gp41 NT 1-5 SOS gp140 mutant (trimer) (HIV-1 isolate JR-FL (subtype B)) (UniProt P20871); test: SPR, with against without D1D2-CD4
[6] = biological target: wild-type JR-FL SOS gp140 (trimer) (HIV-1 isolate JR-FL (subtype B)) (UniProt P20871); test: SPR, with against without D1D2-CD4
[7] = biological target: JR-FL gp41 NT 1-5 SOS gp140 mutant (trimer) (HIV-1 isolate JR-FL (subtype B)) (UniProt P20871); test: SPR (BIAcore X): agent captured via Fc on protein G chip, 5 nM purified gp140 trimer injected, no CD4
[8] = biological target: wild-type JR-FL SOS gp140 (trimer) (HIV-1 isolate JR-FL (subtype B)) (UniProt P20871); test: as above
[9] = biological target: JR-FL gp41 NT 1-5 SOS gp140 mutant (trimer) (HIV-1 isolate JR-FL (subtype B)) (UniProt P20871); test: SPR (BIAcore X): 17b captured via Fc on protein G chip, 5 nM gp140 trimer pre-incubated 1 h with 6-molar excess D1D2-CD4
[10] = biological target: wild-type JR-FL SOS gp140 (trimer) (HIV-1 isolate JR-FL (subtype B)) (UniProt P20871); test: as above

For T-20 (Enfuvirtide) (peptide), the neutralization of Env-pseudotyped virus infectivity (U87.CD4.CCR5 cells), mean IC50 [1] was 11.5 nM, the IC50 of neutralization, fold against the mutant [2] was 2 fold and the neutralization of Env-pseudotyped virus infectivity (U87.CD4.CCR5 cells), mean IC50 [2] was 24.2 nM.
In the case of MAb A32 (antibody), the neutralization of Env-pseudotyped virus infectivity (U87.CD4.CCR5 cells), mean IC50 [1] is reported as > 50 µg/mL and the neutralization of Env-pseudotyped virus infectivity (U87.CD4.CCR5 cells), mean IC50 [2] is reported as > 50 µg/mL.
In the case of MAb 15e (antibody), the neutralization of Env-pseudotyped virus infectivity (U87.CD4.CCR5 cells), mean IC50 [1] is reported as > 50 µg/mL and the neutralization of Env-pseudotyped virus infectivity (U87.CD4.CCR5 cells), mean IC50 [2] is reported as > 50 µg/mL.
“CD4-IgG2 (PRO 542) (from UniProt P01730 26-204) (Fc fusion)” showed a Mean RU at end of injection (t = 180 s) [3] of 224 RU, a Mean RU at end of injection (t = 180 s) [4] of 212 RU and a neutralization of Env-pseudotyped virus infectivity (U87.CD4.CCR5 cells), mean IC50 [1] of 0.74 µg/mL. It also gave a neutralization of Env-pseudotyped virus infectivity (U87.CD4.CCR5 cells), mean IC50 [2] of 0.82 µg/mL.
MAb F425-B4e8 (antibody) was tested, and the neutralization of Env-pseudotyped virus infectivity (U87.CD4.CCR5 cells), mean IC50 [1] was 2.64 µg/mL and the neutralization of Env-pseudotyped virus infectivity (U87.CD4.CCR5 cells), mean IC50 [2] was 2.94 µg/mL.
MAb 2F5 (antibody) showed a Mean RU at end of injection (t = 180 s) [3] of 216 RU, a Mean RU at end of injection (t = 180 s) [4] of 191 RU and a neutralization of Env-pseudotyped virus infectivity (U87.CD4.CCR5 cells), mean IC50 [1] of 5.9 µg/mL. For the same substance, the neutralization of Env-pseudotyped virus infectivity (U87.CD4.CCR5 cells), mean IC50 [2] was 6.2 µg/mL.
For MAb 4E10 (antibody), the Mean RU at end of injection (t = 180 s) [3] was 94 RU, the Mean RU at end of injection (t = 180 s) [4] was 83 RU and the neutralization of Env-pseudotyped virus infectivity (U87.CD4.CCR5 cells), mean IC50 [1] was 14.1 µg/mL. It also gave a neutralization of Env-pseudotyped virus infectivity (U87.CD4.CCR5 cells), mean IC50 [2] of 13.4 µg/mL.
For monoclonal antibody (MAb) PA-1, the Mean RU at end of injection (t = 180 s) [3] was 123 RU, the Mean RU at end of injection (t = 180 s) [4] was 242 RU and the neutralization of Env-pseudotyped virus infectivity (U87.CD4.CCR5 cells), mean IC50 [1] was > 50 µg/mL. The neutralization of Env-pseudotyped virus infectivity (U87.CD4.CCR5 cells), mean IC50 [2] was > 50 µg/mL.
In the case of MAb b6 (antibody), the Mean RU at end of injection (t = 180 s) [3] is reported as 233 RU, the Mean RU at end of injection (t = 180 s) [4] is reported as 391 RU and the neutralization of Env-pseudotyped virus infectivity (U87.CD4.CCR5 cells), mean IC50 [1] is reported as > 50 µg/mL. For the same substance, the neutralization of Env-pseudotyped virus infectivity (U87.CD4.CCR5 cells), mean IC50 [2] was > 50 µg/mL.
With MAb 17b (antibody) the fold induction of 17b binding by D1D2-CD4 [5] was 25 fold, the fold induction of 17b binding by D1D2-CD4 [6] was 5 fold and the neutralization in the presence of sCD4, fold against the WT virus [1] was 2 fold. The neutralization of Env-pseudotyped virus infectivity (U87.CD4.CCR5 cells), mean IC50 [1] was > 50 µg/mL, the neutralization of Env-pseudotyped virus infectivity in the presence of sCD4 (17b + sCD4), mean IC50 [1] was 15.2 µg/mL and the neutralization of Env-pseudotyped virus infectivity (U87.CD4.CCR5 cells), mean IC50 [2] was > 50 µg/mL. The neutralization of Env-pseudotyped virus infectivity in the presence of sCD4 (17b + sCD4), mean IC50 [2] was 25.9 µg/mL, the Mean RU at end of injection (t = 180 s) [7] was 14 RU and the Mean RU at end of injection (t = 180 s) [8] was 39 RU. For the same substance, the Mean RU at end of injection (t = 180 s) [9] was 399 RU and the Mean RU at end of injection (t = 180 s) [10] was 237 RU.
MAb b12 (antibody) was tested, and the Mean RU at end of injection (t = 180 s) [3] was 195 RU, the Mean RU at end of injection (t = 180 s) [4] was 223 RU and the neutralization of Env-pseudotyped virus infectivity (U87.CD4.CCR5 cells), mean IC50 [1] was 0.17 µg/mL. It also gave a neutralization of Env-pseudotyped virus infectivity (U87.CD4.CCR5 cells), mean IC50 [2] of 0.15 µg/mL.
